Key:
Experiment in all cases: holdup assay
Design in all cases: key: below the threshold = too weak to quantify, mostly under pKd 3.1 to 4
[1] = biological target: T1, APBA1_1, Q02410
T1 sequence (Q02410 651-752, limits assumed, looked up): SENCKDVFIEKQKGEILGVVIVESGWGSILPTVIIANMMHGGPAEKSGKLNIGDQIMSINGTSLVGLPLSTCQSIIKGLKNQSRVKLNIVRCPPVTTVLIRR

[2] = biological target: T2, APBA1_2, Q02410
T2 sequence (Q02410 742-832, limits assumed, looked up): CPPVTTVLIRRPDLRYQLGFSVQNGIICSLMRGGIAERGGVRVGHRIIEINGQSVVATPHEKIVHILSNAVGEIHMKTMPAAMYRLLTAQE

[3] = biological target: ARHGEF12, Q9NZN5-2
Chain of ARHGEF12, Q9NZN5-2 (Q9NZN5 other isoform, or with tags, fused parts or gaps): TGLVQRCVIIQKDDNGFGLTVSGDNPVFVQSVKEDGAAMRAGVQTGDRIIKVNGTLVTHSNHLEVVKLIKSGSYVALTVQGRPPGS

[4] = biological target: DLG2_2, Q15700
Chain of DLG2_2, Q15700 (Q15700 189-283): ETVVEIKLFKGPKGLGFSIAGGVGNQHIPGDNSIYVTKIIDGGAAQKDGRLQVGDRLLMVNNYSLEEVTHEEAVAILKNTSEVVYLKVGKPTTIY

[5] = biological target: DLG5_1, Q8TDM6
Chain of DLG5_1, Q8TDM6 (Q8TDM6 617-713): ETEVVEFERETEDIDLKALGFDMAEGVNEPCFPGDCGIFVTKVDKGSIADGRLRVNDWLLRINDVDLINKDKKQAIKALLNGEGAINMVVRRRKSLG

[6] = biological target: FRMPD2_2, Q68DX3
Chain of FRMPD2_2, Q68DX3 (Q68DX3 944-1038): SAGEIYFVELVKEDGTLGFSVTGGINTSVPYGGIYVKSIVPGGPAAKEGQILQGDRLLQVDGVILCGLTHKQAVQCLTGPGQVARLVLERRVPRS

[7] = biological target: GOPC, Q9HD26
[8] = biological target: T3, GRIP1_2, Q9Y3R0
T3 sequence (Q9Y3R0 145-248, limits assumed, looked up): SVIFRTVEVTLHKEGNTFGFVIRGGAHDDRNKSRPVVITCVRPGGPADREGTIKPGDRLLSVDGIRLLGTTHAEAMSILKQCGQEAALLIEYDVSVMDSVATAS

[9] = biological target: T4, GRIP1_3, Q9Y3R0
T4 sequence (Q9Y3R0 247-346, limits assumed, looked up): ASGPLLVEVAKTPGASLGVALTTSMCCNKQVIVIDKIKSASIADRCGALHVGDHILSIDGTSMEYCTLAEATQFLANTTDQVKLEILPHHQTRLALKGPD

[10] = biological target: T5, GRIP1_4, Q9Y3R0
T5 sequence (Q9Y3R0 467-571, limits assumed, looked up): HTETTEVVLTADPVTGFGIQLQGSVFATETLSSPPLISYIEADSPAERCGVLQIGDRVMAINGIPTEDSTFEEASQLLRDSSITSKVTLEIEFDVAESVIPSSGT

[11] = biological target: GRIP2_3, Q9C0E4
Chain of GRIP2_3, Q9C0E4 (Q9C0E4 238-339): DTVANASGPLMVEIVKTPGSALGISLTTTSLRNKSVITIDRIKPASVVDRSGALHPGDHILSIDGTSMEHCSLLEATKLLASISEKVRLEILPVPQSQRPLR

[12] = biological target: T6, HTRA4, P83105
T6 sequence (P83105 378-476, limits assumed, looked up): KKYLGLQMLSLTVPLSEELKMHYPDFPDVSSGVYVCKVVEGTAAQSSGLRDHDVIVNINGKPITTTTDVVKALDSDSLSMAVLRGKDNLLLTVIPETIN

[13] = biological target: Inadl_2, Q8NI35
Chain of Inadl_2, Q8NI35 (Q8NI35 238-335): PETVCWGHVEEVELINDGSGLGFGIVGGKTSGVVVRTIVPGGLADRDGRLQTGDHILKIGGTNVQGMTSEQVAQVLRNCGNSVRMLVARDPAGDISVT

[14] = biological target: Inadl_8, Q8NI35
Chain of Inadl_8, Q8NI35 (Q8NI35 1425-1530): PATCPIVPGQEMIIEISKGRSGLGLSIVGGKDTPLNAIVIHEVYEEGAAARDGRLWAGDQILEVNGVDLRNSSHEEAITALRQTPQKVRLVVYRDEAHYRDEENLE

[15] = biological target: Inadl_9, Q8NI35
Chain of Inadl_9, Q8NI35 (Q8NI35 1530-1615): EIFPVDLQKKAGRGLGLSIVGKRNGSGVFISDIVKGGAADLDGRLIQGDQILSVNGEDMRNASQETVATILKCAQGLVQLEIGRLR

[16] = biological target: T7, LIN7A, O14910
T7 sequence (O14910 103-200, limits assumed, looked up): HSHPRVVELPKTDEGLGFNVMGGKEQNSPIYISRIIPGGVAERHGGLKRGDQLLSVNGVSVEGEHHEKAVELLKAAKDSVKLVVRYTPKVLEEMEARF

[17] = biological target: T8, LRRC7, Q96NW7
T8 sequence (Q96NW7 1440-1537, limits assumed, looked up): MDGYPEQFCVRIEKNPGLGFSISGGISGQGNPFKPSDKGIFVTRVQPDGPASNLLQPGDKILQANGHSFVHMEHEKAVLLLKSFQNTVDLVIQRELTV

[18] = biological target: MAGI2_2, Q86UL8
Chain of MAGI2_2, Q86UL8 (Q86UL8 410-522): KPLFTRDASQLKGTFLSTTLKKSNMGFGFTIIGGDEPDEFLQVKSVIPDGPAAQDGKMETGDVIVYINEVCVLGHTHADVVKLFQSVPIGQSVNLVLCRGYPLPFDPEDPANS

[19] = biological target: NHERF2_2, Q15599
Chain of NHERF2_2, Q15599 (Q15599 142-238): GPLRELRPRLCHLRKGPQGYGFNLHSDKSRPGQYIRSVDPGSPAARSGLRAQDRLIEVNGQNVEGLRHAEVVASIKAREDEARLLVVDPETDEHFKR

[20] = biological target: NOS1, P29475
Chain of NOS1, P29475 (P29475 9-101): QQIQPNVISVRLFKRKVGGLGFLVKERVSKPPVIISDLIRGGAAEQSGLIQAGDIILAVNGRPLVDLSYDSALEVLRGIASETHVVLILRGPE

[21] = biological target: T9, PARD3B_1, Q8TEW8
T9 sequence (Q8TEW8 196-299, limits assumed, looked up): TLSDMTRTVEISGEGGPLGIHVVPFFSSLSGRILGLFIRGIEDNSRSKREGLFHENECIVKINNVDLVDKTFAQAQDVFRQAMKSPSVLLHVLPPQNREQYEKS

[22] = biological target: PARD3_3, Q8TEW0
Chain of PARD3_3, Q8TEW0 (Q8TEW0 582-685): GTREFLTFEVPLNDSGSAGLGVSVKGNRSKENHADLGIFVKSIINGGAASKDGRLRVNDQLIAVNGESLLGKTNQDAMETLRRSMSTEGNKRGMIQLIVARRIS

[23] = biological target: T10, PCLO, Q9Y6V0
T10 sequence (Q9Y6V0 4491-4600, limits assumed, looked up): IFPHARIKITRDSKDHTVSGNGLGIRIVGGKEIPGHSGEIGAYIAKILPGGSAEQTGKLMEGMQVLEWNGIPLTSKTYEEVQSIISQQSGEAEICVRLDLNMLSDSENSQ

[24] = biological target: PDZRN4_1, Q6ZMN7
Chain of PDZRN4_1, Q6ZMN7 (Q6ZMN7 213-318): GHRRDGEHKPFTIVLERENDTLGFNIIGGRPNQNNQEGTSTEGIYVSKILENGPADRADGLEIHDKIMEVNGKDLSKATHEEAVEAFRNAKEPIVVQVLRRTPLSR

[25] = biological target: PICK1, Q9NRD5
Chain of PICK1, Q9NRD5 (Q9NRD5 17-115): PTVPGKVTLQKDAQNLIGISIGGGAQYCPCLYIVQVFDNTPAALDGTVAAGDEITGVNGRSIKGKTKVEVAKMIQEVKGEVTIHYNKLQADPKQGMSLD

[26] = biological target: T11, TIAM2, Q8IVF5
T11 sequence (Q8IVF5 885-986, limits assumed, looked up): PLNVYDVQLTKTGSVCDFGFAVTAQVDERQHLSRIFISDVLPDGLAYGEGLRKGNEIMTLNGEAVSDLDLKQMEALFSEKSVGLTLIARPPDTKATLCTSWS

[27] = plain residues with an end cap or a label only (N-terminal biotin on a linker: (peg)3)
[28] = plain residues with an end cap or a label only (N-terminal biotin on a linker: ado-ado)
[29] = plain residues with an end cap or a label only (N-terminal biotin on a linker: ahx)

How did the pKd [1, 27] turn out when RRRRSQSRESQC [HBV-HBc, P03193] was run?
The pKd was “below the threshold”.

And the pKd [2, 27]?
The pKd was “below the threshold”.

And the pKd [3, 27]?
Its pKd is “below the threshold”.

And the pKd [4, 27]?
Its pKd is 4.22.

And the pKd [5, 27]?
The pKd was “below the threshold”.

And the pKd [6, 27]?
Its pKd is “below the threshold”.

And the pKd [7, 27]?
Its pKd is “below the threshold”.

And the pKd [8, 27]?
Its pKd is “below the threshold”.

And the pKd [9, 27]?
The pKd was “below the threshold”.

And the pKd [10, 27]?
Its pKd is “below the threshold”.

And the pKd [11, 27]?
The pKd was “below the threshold”.

What about the pKd [12, 27] of the same binder?
Its pKd is “below the threshold”.

And the pKd [13, 27]?
The pKd was “below the threshold”.

And the pKd [14, 27]?
Its pKd is 3.58.

What about the pKd [15, 27] of the same binder?
The pKd was “below the threshold”.

What about the pKd [16, 27] of the same binder?
Its pKd is “below the threshold”.

And the pKd [17, 27]?
The pKd was “below the threshold”.

And the pKd [18, 27]?
The pKd was 4.4.

And the pKd [19, 27]?
The pKd was “below the threshold”.

What about the pKd [20, 27] of the same binder?
The pKd was “below the threshold”.

What about the pKd [21, 27] of the same binder?
Its pKd is “below the threshold”.

And the pKd [22, 27]?
The pKd was “below the threshold”.

And the pKd [23, 27]?
Its pKd is “below the threshold”.

What about the pKd [24, 27] of the same binder?
The pKd was “below the threshold”.

What about the pKd [25, 27] of the same binder?
The pKd was 4.05.

And the pKd [26, 27]?
The pKd was 3.86.

What does the source list for NTANRRTTPV [CACNG2, Q9Y698]?
pKd [1, 28]: below the threshold; pKd [2, 28]: 3.76; pKd [3, 28]: 3.93; pKd [4, 28]: 4.53; pKd [5, 28]: below the threshold; pKd [6, 28]: 3.59; pKd [7, 28]: below the threshold; pKd [8, 28]: below the threshold; pKd [9, 28]: below the threshold; pKd [10, 28]: below the threshold; pKd [11, 28]: below the threshold; pKd [12, 28]: below the threshold; pKd [13, 28]: below the threshold; pKd [14, 28]: 4.23; pKd [15, 28]: below the threshold; pKd [16, 28]: below the threshold; pKd [17, 28]: below the threshold; pKd [18, 28]: 4.98; pKd [19, 28]: below the threshold; pKd [20, 28]: 3.99; pKd [21, 28]: below the threshold; pKd [22, 28]: below the threshold; pKd [23, 28]: below the threshold; pKd [24, 28]: below the threshold; pKd [25, 28]: below the threshold; pKd [26, 28]: below the threshold

What does the source list for TQKFRASTAL [FRMPD1, Q5SYB0]?
pKd [1, 29]: below the threshold; pKd [2, 29]: 3.5; pKd [3, 29]: 4.79; pKd [4, 29]: 4.17; pKd [5, 29]: below the threshold; pKd [6, 29]: below the threshold; pKd [7, 29]: 4.12; pKd [8, 29]: below the threshold; pKd [9, 29]: below the threshold; pKd [10, 29]: below the threshold; pKd [11, 29]: below the threshold; pKd [12, 29]: below the threshold; pKd [13, 29]: below the threshold; pKd [14, 29]: below the threshold; pKd [15, 29]: below the threshold; pKd [16, 29]: below the threshold; pKd [17, 29]: below the threshold; pKd [18, 29]: 4.18; pKd [19, 29]: 4.03; pKd [20, 29]: 3.72; pKd [21, 29]: below the threshold; pKd [22, 29]: below the threshold; pKd [23, 29]: below the threshold; pKd [24, 29]: 4.17; pKd [25, 29]: below the threshold; pKd [26, 29]: below the threshold

Source: article PMC9482650, “Quantitative fragmentomics allow affinity mapping of interactomes” (Nature Communications, 2022)
